Target: His-tagged PKM1 (human) (UniProt P14618)
Assay: AlphaScreen or HTRF

Chain of Pep-SP1 (Q6SZW1 whole entry, looked up): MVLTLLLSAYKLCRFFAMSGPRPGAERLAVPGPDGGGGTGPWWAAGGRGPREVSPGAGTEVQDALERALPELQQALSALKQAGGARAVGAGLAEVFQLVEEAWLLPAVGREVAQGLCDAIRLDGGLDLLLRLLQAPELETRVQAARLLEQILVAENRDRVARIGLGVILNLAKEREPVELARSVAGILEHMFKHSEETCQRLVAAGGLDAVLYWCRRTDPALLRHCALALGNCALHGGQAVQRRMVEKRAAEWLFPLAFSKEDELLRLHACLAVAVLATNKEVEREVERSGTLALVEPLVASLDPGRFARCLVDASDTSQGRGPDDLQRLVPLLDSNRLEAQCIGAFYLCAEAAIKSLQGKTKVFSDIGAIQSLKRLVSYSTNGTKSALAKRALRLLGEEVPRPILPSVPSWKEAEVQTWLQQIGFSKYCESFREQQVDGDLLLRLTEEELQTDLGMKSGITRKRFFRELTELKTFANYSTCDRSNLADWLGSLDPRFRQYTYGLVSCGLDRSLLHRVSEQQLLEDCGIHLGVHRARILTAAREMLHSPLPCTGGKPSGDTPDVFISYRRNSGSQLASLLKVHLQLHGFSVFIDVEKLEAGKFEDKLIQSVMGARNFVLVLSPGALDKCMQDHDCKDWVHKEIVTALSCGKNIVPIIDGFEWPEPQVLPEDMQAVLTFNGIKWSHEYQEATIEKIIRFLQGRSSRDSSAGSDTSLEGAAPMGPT

“Pep-SP1 (from UniProt Q6SZW1 645-655) (peptide)” was tested, and the IC50 was 1070 nM.
